# Results published in PMC6347702.
# Key:
# [1] = substrate: OC[C@H]1OC(O)[C@H](O)[C@@H](O)[C@@H]1O; assay: spectrophotometric kinase assay, recombinant enzyme; type: biochemical, Homo sapiens; conditions: ATP-Mg2+
# [2] = substrate: OC[C@H]1OC(O)[C@H](O)[C@@H](O)[C@@H]1O; assay: radiochemical kinase assay, recombinant enzyme; type: biochemical, Homo sapiens; conditions: ADP-Mg2+
protein,measurement,setting,value
hexokinase 2 (∆28-hHK2) (Homo sapiens) (protein) MRLSDETLLEISKRFRKEMEKGLGATTHPTAAVKMLPTFVRSTPDGTEHGEFLALDLGGTNFRVLWVKVTDNGLQKVEMENQIYAIPEDIMRGSGTQLFDHIAECLANFMDKLQIKDKKLPLGFTFSFPCHQTKLDESFLVSWTKGFKSSGVEGRDVVALIRKAIQRRGDFDIDIVAVVNDTVGTMMTCGYDDHNCEIGLIVGTGSNACYMEEMRHIDMVEGDEGRMCINMEWGAFGDDGSLNDIRTEFDQEIDMGSLNPGKQLFEKMISGMYMGELVRLILVKMAKEELLFGGKLSPELLNTGRFETKDISDIEGEKDGIRKAREVLMRLGLDPTQEDCVATHRICQIVSTRSASLCAATLAAVLQRIKENKGEERLRSTIGVDGSVYKKHPHFAKRLHKTVRRLVPGCDVRFLRSEDGSGKGAAMVTAVAYRLADQHRARQKTLEHLQLSHDQLLEVKRRMKVEMERGLSKETHASAPVKMLPTYVCATPDGTEKGDFLALDLGGTNFRVLLVRVRNGKWGGVEMHNKIYAIPQEVMHGTGDELFDHIVQCIADFLEYMGMKGVSLPLGFTFSFPCQQNSLDESILLKWTKGFKASGCEGEDVVTLLKEAIHRREEFDLDVVAVVNDTVGTMMTCGFEDPHCEVGLIVGTGSNACYMEEMRNVELVEGEEGRMCVNMEWGAFGDNGCLDDFRTEFDVAVDELSLNPGKQRFEKMISGMYLGEIVRNILIDFTKRGLLFRGRISERLKTRGIFETKFLSQIESDCLALLQVRAILQHLGLESTCDDSIIVKEVCTVVARRAAQLCGAGMAAVVDRIRENRGLDALKVTVGVDGTLYKLHPHFAKVMHETVKDLAPKCDVSFLQSEDGSGKGAALITAVACRIREAGQR,Vmax,[1],35.4 µmol/min/mg
hexokinase 3 (hHK3) (Homo sapiens) (protein) MDSIGSSGLRQGEETLSCSEEGLPGPSDSSELVQECLQQFKVTRAQLQQIQASLLGSMEQALRGQASPAPAVRMLPTYVGSTPHGTEQGDFVVLELGATGASLRVLWVTLTGIEGHRVEPRSQEFVIPQEVMLGAGQQLFDFAAHCLSEFLDAQPVNKQGLQLGFSFSFPCHQTGLDRSTLISWTKGFRCSGVEGQDVVQLLRDAIRRQGAYNIDVVAVVNDTVGTMMGCEPGVRPCEVGLVVDTGTNACYMEEARHVAVLDEDRGRVCVSVEWGSFSDDGALGPVLTTFDHTLDHESLNPGAQRFEKMIGGLYLGELVRLVLAHLARCGVLFGGCTSPALLSQGSILLEHVAEMEDPSTGAARVHAILQDLGLSPGASDVELVQHVCAAVCTRAAQLCAAALAAVLSCLQHSREQQTLQVAVATGGRVCERHPRFCSVLQGTVMLLAPECDVSLIPSVDGGGRGVAMVTAVAARLAAHRRLLEETLAPFRLNHDQLAAVQAQMRKAMAKGLRGEASSLRMLPTFVRATPDGSERGDFLALDLGGTNFRVLLVRVTTGVQITSEIYSIPETVAQGSGQQLFDHIVDCIVDFQQKQGLSGQSLPLGFTFSFPCRQLGLDQGILLNWTKGFKASDCEGQDVVSLLREAITRRQAVELNVVAIVNDTVGTMMSCGYEDPRCEIGLIVGTGTNACYMEELRNVAGVPGDSGRMCINMEWGAFGDDGSLAMLSTRFDASVDQASINPGKQRFEKMISGMYLGEIVRHILLHLTSLGVLFRGQQIQRLQTRDIFKTKFLSEIESDSLALRQVRAILEDLGLPLTSDDALMVLEVCQAVSQRAAQLCGAGVAAVVEKIRENRGLEELAVSVGVDGTLYKLHPRFSSLVAATVRELAPRCVVTFLQSEDGSGKGAALVTAVACRLAQLTRV,Km,[1],12.2 ± 1 µM
ADP-glucokinase (∆50-hADPG) (Homo sapiens) (protein) VSPEGRLAAAWDALIVRPVRRWRRVAVGVNACVDVVLSGVKLLQALGLSPGNGKDHSILHSRNDLEEAFIHFMGKGAAAERFFSDKETFHDIAQVASEFPGAQHYVGGNAALIGQKFAANSDLKVLLCGPVGPKLHELLDDNVFVPPESLQEVDEFHLILEYQAGEEWGQLKAPHANRFIFSHDLSNGAMNMLEVFVSSLEEFQPDLVVLSGLHMMEGQSKELQRKRLLEVVTSISDIPTGIPVHLELASMTNRELMSSIVHQQVFPAVTSLGLNEQELLFLTQSASGPHSSLSSWNGVPDVGMVSDILFWILKEHGRSKSRASDLTRIHFHTLVYHILATVDGHWANQLAAVAAGARVAGTQACATETIDTSRVSLRAPQEFMTSHSEAGSRIVLNPNKPVVEWHREGISFHFTPVLVCKDPIRTVGLGDAISAEGLFYSEVHPHY,Km,[2],12.3 ± 1.3 µM
